Measurements published in PMC8258042.

Target: cardiac troponin I (cTnI) (human, UniProt P19429 2-210)
Test: strand displacement

Chain of cardiac troponin I (cTnI) (P19429 2-210): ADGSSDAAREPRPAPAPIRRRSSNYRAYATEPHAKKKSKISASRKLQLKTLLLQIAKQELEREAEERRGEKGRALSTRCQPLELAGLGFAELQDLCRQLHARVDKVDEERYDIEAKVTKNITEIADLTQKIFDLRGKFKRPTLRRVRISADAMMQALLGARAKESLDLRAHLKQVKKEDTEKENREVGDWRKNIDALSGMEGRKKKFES

B1: Poly-T (ssDNA)
DNA: TTTTTTTTTTTTTTTTTTTTCTCATGCGCTGCCCCTCTTATTTTTTTTTTT
modifications: 3'-NH2
- binding result: no binding
